Drawing on publication PMC10126545, this text covers stoichiometry N for 1 substance.

What is called stoichiometry N is the number of molecules, sites or subunits per partner or assembly.

The assay concerns the target COBRA P1 HA ectodomain, insect-cell expressed, Foldon and tags removed by thrombin. Briefly: SEC; Superdex 200 16/600 in 50 mM NaCl, 10 mM Tris pH 7.5, after thrombin digestion that removed the Foldon and tags. A general note: SEC sorts molecules by how far they enter the pores of the column.

As to “COBRA P1 HA ectodomain, insect-cell expressed, Foldon and tags removed by thrombin”, the stoichiometry N came to 3.
